Publication doi:10.1101/694695 (bioRxiv, 2019)
Read-outs that look alike come from different tables or passages of the source.

B2: Ec Pch2^EQ (E159Q), purified hexamer (enzyme, E. coli MS115-1, UniProt D7Y2H4 1-311, looked up)
chain: MNVKPSLDELFERRINFPDFEPQERLARLVGLDEHKDRLSKILGLLVNPYGIQEWAKKYHPDARAAVDTVLRRPPLVVLAGDVGSGKTELAETIGDAVARQEDIDITLYPLSLATRGQGRVGEMTQLVSAAFDYTIEAADKLKNTNGKARGAVLLLIDQADALAQSRENAQMHHEDRAGVNAFIRGIDRIANQKLPAAVLMCTNRLKALDPAVQRRAAEILTFSRPNDEQRHYLLHSKLTGLGLNSTAVEELVRLTGPRDPNSPGFTFSDITQRLIPSIILAAYPYNAVSVHSALQVVNKMTPTPAFIDRQ

Legend:
[1] = molecular target: Pa CdnD (purified, in complexes with HORMA proteins) (P. aeruginosa ATCC27853) (UniProt P0DTF7); test: SEC-MALS
[2] = molecular target: Pa HORMA2, untagged, coexpressed (P. aeruginosa ATCC27853); test: SEC-MALS
[3] = molecular target: Rhizobiales sp. Pch2 (Rhizobiales sp.); test: crystal structure
[4] = molecular target: B2; test: crystal structure
[5] = molecular target: T1, Ec CdnC (purified, coexpressed with His6-HORMA) (E. coli MS115-1, UniProt D7Y2H2 1-321); test: SEC-MALS
T1 sequence (looked up): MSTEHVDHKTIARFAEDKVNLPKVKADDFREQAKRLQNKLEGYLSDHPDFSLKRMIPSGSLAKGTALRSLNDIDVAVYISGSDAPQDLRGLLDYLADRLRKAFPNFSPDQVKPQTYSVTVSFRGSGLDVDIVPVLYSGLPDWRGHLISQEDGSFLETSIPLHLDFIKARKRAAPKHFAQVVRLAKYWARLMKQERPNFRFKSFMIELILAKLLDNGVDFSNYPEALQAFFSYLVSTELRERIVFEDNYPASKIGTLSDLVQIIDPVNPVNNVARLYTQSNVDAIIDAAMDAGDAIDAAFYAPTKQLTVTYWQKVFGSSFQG

SEC-MALS = molecular target: the molecule itself; test: SEC-MALS
[6] = molecular target: T2, Ec CdnC:HORMA complex (purified) (E. coli MS115-1, UniProt D7Y2H2 1-321; D7Y2H3 1-172); test: SEC-MALS
T2 sequence (looked up) 1: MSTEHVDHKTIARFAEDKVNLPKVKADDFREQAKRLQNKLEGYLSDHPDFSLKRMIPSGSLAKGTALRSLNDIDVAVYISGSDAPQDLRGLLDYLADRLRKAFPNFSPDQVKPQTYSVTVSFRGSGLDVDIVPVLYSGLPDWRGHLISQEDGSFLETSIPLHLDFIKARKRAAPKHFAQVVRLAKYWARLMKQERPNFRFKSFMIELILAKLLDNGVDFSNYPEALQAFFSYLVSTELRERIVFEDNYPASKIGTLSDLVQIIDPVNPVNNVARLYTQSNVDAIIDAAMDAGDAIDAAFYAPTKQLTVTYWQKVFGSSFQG
T2 sequence (looked up) 2: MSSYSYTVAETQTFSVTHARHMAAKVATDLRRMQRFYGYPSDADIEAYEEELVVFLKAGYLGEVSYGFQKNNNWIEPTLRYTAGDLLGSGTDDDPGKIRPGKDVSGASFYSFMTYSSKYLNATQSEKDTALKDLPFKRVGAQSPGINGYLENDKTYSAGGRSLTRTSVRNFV

Chain of Pa CdnD (purified, in complexes with HORMA proteins) (P. aeruginosa ATCC27853) (P0DTF7 whole entry, one chain of several): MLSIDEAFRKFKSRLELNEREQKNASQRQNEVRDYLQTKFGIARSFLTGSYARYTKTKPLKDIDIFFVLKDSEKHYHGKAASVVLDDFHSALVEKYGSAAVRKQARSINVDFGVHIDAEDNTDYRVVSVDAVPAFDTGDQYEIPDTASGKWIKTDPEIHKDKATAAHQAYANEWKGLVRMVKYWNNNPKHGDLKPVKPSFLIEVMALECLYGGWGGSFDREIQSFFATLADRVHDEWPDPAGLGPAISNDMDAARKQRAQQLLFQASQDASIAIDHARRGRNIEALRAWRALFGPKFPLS
Chain of Pa HORMA2, untagged, coexpressed (P. aeruginosa ATCC27853) (P0DTF6 whole entry): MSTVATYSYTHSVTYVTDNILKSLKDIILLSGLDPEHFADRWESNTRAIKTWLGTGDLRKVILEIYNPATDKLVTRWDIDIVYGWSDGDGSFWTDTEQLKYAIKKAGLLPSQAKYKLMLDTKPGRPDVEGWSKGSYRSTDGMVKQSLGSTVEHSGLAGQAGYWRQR

Pa HORMA1 (purified, SEC-MALS samples) (natural protein)
stoichiometry N ([1]; scale: CdnD per HORMA1 in the 2:1:1 CdnD:HORMA1:HORMA2 complex): 2 | stoichiometry N (HORMA1:HORMA2) [2]: 1 | stoichiometry N ([2]; scale: HORMA1 per HORMA2 in the 2:1:1 CdnD:HORMA1:HORMA2 complex): 1

Rhizobiales sp. Pch2 (enzyme)
stoichiometry N [3]: 6

Pa HORMA2, untagged, coexpressed (natural protein)
stoichiometry N [1]: 1 CdnD:HORMA2 | stoichiometry N ([1]; scale: CdnD per HORMA2 in the 2:1:1 CdnD:HORMA1:HORMA2 complex): 2

B1: Ec HORMA (purified, coexpressed with CdnC) (natural protein, E. coli MS115-1, UniProt D7Y2H3 1-172, looked up)
chain: MSSYSYTVAETQTFSVTHARHMAAKVATDLRRMQRFYGYPSDADIEAYEEELVVFLKAGYLGEVSYGFQKNNNWIEPTLRYTAGDLLGSGTDDDPGKIRPGKDVSGASFYSFMTYSSKYLNATQSEKDTALKDLPFKRVGAQSPGINGYLENDKTYSAGGRSLTRTSVRNFV
binding result [4]: binds | stoichiometry N [5]: 1 CdnC:HORMA

B2
stoichiometry N (SEC-MALS): 6 | stoichiometry N [6]: 6 Pch2^EQ chains per CdnC:HORMA
